Assay [1] deals with human somatostatin receptor subtype SSTR4 (human) (UniProt P31391). Description: FACS, transfected HEK-293 cells.
Assay [2] deals with human somatostatin receptor subtype SSTR1 (human) (UniProt P30872). In words: FACS, transfected HEK-293 cells.
In assay [3] the target is human somatostatin receptor subtype SSTR3 (human) (UniProt P32745). In words: FACS, transfected HEK-293 cells.
Assay [4] deals with human somatostatin receptor subtype SSTR2 (human) (UniProt P30874). In words: FACS, transfected HEK-293 cells.
Sequence of human somatostatin receptor subtype SSTR2 (human) (P30874 whole entry): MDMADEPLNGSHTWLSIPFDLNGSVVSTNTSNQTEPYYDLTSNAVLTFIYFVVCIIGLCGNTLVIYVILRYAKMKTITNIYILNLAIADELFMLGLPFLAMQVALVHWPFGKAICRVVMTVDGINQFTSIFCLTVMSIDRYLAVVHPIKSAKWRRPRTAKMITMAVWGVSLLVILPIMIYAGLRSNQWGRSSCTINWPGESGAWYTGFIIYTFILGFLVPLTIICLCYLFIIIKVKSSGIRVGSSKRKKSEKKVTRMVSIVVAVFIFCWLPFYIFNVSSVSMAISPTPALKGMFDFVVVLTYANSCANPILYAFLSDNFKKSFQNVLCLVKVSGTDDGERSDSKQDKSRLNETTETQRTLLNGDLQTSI
Assay [5] concerns the target human somatostatin receptor subtype SSTR5 (human) (UniProt P35346). Description: FACS, transfected HEK-293 cells.
For assay [6], the target named is human somatostatin receptor subtype SSTR4 (human) (UniProt P31391). In words: FACS, transfected HEK-293 cells; row normalised to highest.
The target of assay [7] is human somatostatin receptor subtype SSTR1 (human) (UniProt P30872). The assay is described as above.
Assay [8] has as its target human somatostatin receptor subtype SSTR3 (human) (UniProt P32745). Described as above.
In assay [9] the target is human somatostatin receptor subtype SSTR2 (human) (UniProt P30874). Described as above.
For assay [10], the target named is human somatostatin receptor subtype SSTR5 (human) (UniProt P35346). The description is as above.
Sequence of human somatostatin receptor subtype SSTR5 (human) (P35346 whole entry): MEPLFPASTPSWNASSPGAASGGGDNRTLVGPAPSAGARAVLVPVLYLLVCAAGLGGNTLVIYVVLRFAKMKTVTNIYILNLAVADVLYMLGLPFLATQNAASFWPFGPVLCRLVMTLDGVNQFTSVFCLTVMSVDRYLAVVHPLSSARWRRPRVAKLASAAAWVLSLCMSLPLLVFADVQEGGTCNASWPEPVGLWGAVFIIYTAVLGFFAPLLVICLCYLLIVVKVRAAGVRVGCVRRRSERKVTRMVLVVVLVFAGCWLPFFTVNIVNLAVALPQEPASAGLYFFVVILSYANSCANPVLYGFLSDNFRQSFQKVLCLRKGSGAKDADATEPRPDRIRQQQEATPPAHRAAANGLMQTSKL
Assay [11] concerns the target human somatostatin receptor subtype SSTR4 (human) (UniProt P31391). Description: FACS, transfected HEK-293 cells; normalised to Compound 1.
In assay [12] the target is human somatostatin receptor subtype SSTR1 (human) (UniProt P30872). Described as above.
Assay [13] addresses human somatostatin receptor subtype SSTR3 (human) (UniProt P32745). Described as above.
The target in assay [14] is human somatostatin receptor subtype SSTR2 (human) (UniProt P30874). The assay is described as above.
Assay [15] addresses human somatostatin receptor subtype SSTR5 (human) (UniProt P35346). Described as above.

*1 amine or outer side, *2 acyl side, *3 side chain or, on linkers, in order; H or OH if unused. Bridges are numbered along the chain shown (N, C = ends). Primed or numbered codes have the meaning given here. [ ]: non-standard residue; d: D form. N(2-mercaptoethyl)Gly = O=C(CN(CCS[*:3])[*:1])[*:2]; FITC′ = fluorescein isothiocyanate; Orn = NCCC[C@H](N)C(=O)O; Aib = CC(C)(N)C(=O)O; GABA = NCCCC(=O)O

Sequence of human somatostatin receptor subtype SSTR1 (human) (P30872 whole entry): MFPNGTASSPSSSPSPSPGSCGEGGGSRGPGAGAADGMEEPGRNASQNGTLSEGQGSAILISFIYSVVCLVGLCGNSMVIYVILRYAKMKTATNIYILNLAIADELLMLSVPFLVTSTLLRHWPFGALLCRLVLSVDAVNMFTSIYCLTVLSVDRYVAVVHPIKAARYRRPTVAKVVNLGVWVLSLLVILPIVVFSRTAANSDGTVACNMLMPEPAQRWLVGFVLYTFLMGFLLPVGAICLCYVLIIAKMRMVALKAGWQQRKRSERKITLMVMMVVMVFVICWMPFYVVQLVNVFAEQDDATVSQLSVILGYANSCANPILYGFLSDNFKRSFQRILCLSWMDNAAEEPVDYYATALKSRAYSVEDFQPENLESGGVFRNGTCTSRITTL
Sequence of human somatostatin receptor subtype SSTR4 (human) (P31391 whole entry): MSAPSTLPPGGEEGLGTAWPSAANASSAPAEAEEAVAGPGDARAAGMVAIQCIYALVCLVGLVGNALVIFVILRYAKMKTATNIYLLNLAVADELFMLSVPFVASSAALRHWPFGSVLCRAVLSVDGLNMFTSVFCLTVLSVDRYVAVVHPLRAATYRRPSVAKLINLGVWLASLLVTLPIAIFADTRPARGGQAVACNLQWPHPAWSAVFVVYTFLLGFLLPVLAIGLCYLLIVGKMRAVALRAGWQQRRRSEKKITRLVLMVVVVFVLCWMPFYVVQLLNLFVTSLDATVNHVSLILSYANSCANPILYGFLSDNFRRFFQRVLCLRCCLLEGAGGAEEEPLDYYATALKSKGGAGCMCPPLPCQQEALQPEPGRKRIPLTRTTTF
Sequence of human somatostatin receptor subtype SSTR3 (human) (P32745 whole entry): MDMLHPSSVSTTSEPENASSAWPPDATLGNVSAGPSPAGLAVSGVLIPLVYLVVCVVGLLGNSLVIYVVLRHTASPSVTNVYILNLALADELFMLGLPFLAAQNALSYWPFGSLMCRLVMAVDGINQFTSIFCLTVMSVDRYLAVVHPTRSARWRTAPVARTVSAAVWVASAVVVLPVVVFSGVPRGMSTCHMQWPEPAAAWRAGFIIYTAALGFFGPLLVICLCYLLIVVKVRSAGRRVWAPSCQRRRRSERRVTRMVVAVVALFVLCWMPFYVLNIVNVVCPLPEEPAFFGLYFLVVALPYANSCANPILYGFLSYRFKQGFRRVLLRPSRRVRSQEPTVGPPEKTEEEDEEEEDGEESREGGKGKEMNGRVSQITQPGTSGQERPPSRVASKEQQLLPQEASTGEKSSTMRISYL

On to {FITC′-GABA}-[dF]RCF[dW]KTF[N(2-mercaptoethyl)Gly]-NH2 (disulfide 3-9) [Compound 2], for which the Relative binding affinity is 4% in assay [1]; 5% in assay [2]; 4% in [3]; 5% in assay [4]; 5% in assay [5]. Besides, the Adjusted binding affinity turned out to be 0.8 in [6]; 1 in assay [7]; 0.8 in [8]; 1 in assay [9]; 1 in assay [10]. Moreover, the Binding affinity relative to Compound 1 (% of Compound 1) in assay [11] turned out to be 18; in assay [12] it was 167; in assay [13] it was 24; in assay [14], 77; in [15] it was 18.

B1: Compound 1 (peptide)
peptide: XCFWXKTFX
modifications: FITC-GABA-DPhe-Cys*-Phe-Trp-DTrp-Lys-Thr-Phe-GlyS2*-NH2 (* = S-S bond; GlyS2 = N-thioethyl glycine; FITC-GABA on the N-terminal amine; C-terminal amide)
Regarding B1, the Relative binding affinity in assay [1] came out at 22.5%; in assay [2] it was 3%; in assay [3], 17%; in assay [4], 6.5%; in assay [5], 28.5%. The Adjusted binding affinity in assay [6] amounted to 0.79; in [7], 0.11; in assay [8], 0.6; in assay [9], 0.23; in assay [10], 1. Moreover, the Binding affinity relative to Compound 1 (% of Compound 1) in assay [11], in assay [12], in assay [13], in [14] and in [15] was 100 in each case.
Take {FITC′-GABA}-[dF]CRFF[dW]KTF[N(2-mercaptoethyl)Gly]-NH2 (disulfide 2-10) [Compound 8]: the Relative binding affinity is 31.5% in assay [1]; 2.6% in assay [2]; 11.5% in [3]; 4.5% in [4]; 27.5% in [5]. For the same molecule, the Adjusted binding affinity in assay [6] was 1; in assay [7] it was 0.08; in [8], 0.37; in [9], 0.14; in assay [10] it was 0.87. The Binding affinity relative to Compound 1 (% of Compound 1) in assay [11] worked out at 140; in assay [12] it was 78; in assay [13], 68; in assay [14], 69; in [15], 96.
With {FITC′-GABA}-[dF]RCY[dW]KTF[N(2-mercaptoethyl)Gly]-NH2 (disulfide 3-9) [Compound 6], the Relative binding affinity in [1] is 1.5%; in assay [3] it was 22.5%; in assay [4], 1.5%; in assay [5], 0.5%. Besides, the Adjusted binding affinity in [6] came out at 0.07; in assay [7], 0; in [8], 1; in assay [9], 0.07; in assay [10], 0.02. Moreover, the Binding affinity relative to Compound 1 (% of Compound 1) in assay [11] was 7; in [12] it was 0; in [13] it was 132; in assay [14] it was 23; in [15] it was 2.

B2: Compound 16 (peptide)
peptide: XCFWXXTFX
modifications: FITC-GABA-DPhe-Cys*-Phe-Trp-DTrp-HomoLys-Thr-Phe-GlyS2*-NH2 (* = S-S bond; HomoLys = homolysine; GlyS2 = N-thioethyl glycine; C-terminal amide)
B2: the Relative binding affinity in assay [1] was determined as 4.5%; in [3], 12%; in assay [4], 2.5%; in assay [5] it was 7%. Besides, the Adjusted binding affinity in [6] is 0.38; in assay [7], 0; in assay [8], 1; in assay [9] it was 0.21; in [10], 0.58. In addition, the Binding affinity relative to Compound 1 (% of Compound 1) came to 20 in assay [11]; 0 in [12]; 71 in assay [13]; 38 in assay [14]; 25 in assay [15].

B3: Compound 14 (peptide)
peptide: XCFWXXTFX
modifications: FITC-GABA-DPhe-Cys*-Phe-Trp-DTrp-LysAc-Thr-Phe-GlyS2*-NH2 (* = S-S bond; LysAc = acetyllysine; GlyS2 = N-thioethyl glycine; C-terminal amide)
For the molecule B3, the Relative binding affinity is 3% in assay [1] and 2% in assay [5]. Besides, the figures for the Adjusted binding affinity in [6] and in assay [10] were 1 and 0.67, respectively. Further, the Binding affinity relative to Compound 1 (% of Compound 1) came to 13 in [11] and 7 in assay [15].
On to {FITC′-GABA}-[dF]CY[dW][Orn]TF[N(2-mercaptoethyl)Gly]-NH2 (disulfide 2-8) [Compound 7], for which the Relative binding affinity was 1.5% in assay [1], 2% in assay [3], 1% in [4] and 1% in assay [5]. The Adjusted binding affinity was found to be 0.75 in assay [6]; 0 in assay [7]; 1 in assay [8]; 0.5 in assay [9]; 0.5 in [10]. The Binding affinity relative to Compound 1 (% of Compound 1) in [11] was 7; in assay [12], 0; in assay [13], 12; in [14], 15; in [15] it was 4.

B4: Compound 11 (peptide)
peptide: XXFWXKTFX
modifications: FITC-GABA-DPhe-HCys*-Phe-Trp-DTrp-Lys-Thr-Phe-GlyS2*-NH2 (* = S-S bond; HCys = homocysteine; GlyS2 = N-thioethyl glycine; C-terminal amide)
On to B4, for which the values for the Relative binding affinity in [1] and in assay [5] were 29% and 41%, respectively. In addition, the Adjusted binding affinity was 0.71 in assay [6] and 1 in assay [10]. The Binding affinity relative to Compound 1 (% of Compound 1) in assay [11] is 129; in assay [15] it was 144.
Take {FITC′-GABA}-[dF]CFW[dW][Aib]TF[N(2-mercaptoethyl)Gly]-NH2 (disulfide 2-9) [Compound 13]: the Relative binding affinity was 4% in [1], 1% in [2], 6% in assay [3] and 9% in assay [5]. For the same molecule, the Adjusted binding affinity was 0.44 in assay [6]; 0.11 in assay [7]; 0.67 in [8]; 0 in [9]; 1 in [10]. The Binding affinity relative to Compound 1 (% of Compound 1) was found to be 18 in assay [11]; 33 in [12]; 35 in assay [13]; 0 in assay [14]; 32 in [15].

B5: Compound 3 (peptide)
peptide: XCFWXXTFX
modifications: FITC-GABA-DPhe-Cys*-Phe-Trp-DTrp-Orn-Thr-Phe-GlyS2*-NH2 (* = S-S bond; GlyS2 = N-thioethyl glycine; Orn = ornithine; C-terminal amide)
For B5, the Relative binding affinity is 13.3% in assay [1]; 3.6% in assay [2]; 15.7% in assay [3]; 4.3% in [4]; 9.3% in assay [5]. Moreover, the Adjusted binding affinity in [6] is 0.85; in assay [7] it was 0.23; in [8] it was 1; in assay [9], 0.27; in assay [10], 0.59. The Binding affinity relative to Compound 1 (% of Compound 1) in assay [11] is 59; in [12], 120; in assay [13], 92; in [14] it was 66; in assay [15] it was 33.
With {FITC′-GABA}-[dF]RCF[dW][Orn]TF[N(2-mercaptoethyl)Gly]-NH2 (disulfide 3-9) [Compound 5], the Relative binding affinity in [1] was 1%; in assay [3], 3%; in assay [4], 1%. Further, the Adjusted binding affinity in assay [6] amounted to 0.33; in assay [7], 0; in assay [8], 1; in assay [9], 0.33; in [10], 0. For the same molecule, the Binding affinity relative to Compound 1 (% of Compound 1) in assay [11] turned out to be 4; in [12], 0; in assay [13], 18; in [14], 15; in assay [15] it was 0.

The record behind these values is US20170298113A1 (TEL HASHOMER MEDICAL RESEARCH INFRASTRUCTURE AND SERVICES, published 2017).
